Test results reported in patent publication US20220010017A1 (Bayer, published 2022).

Target: T1, human CEACAM6 (human, UniProt P40199 35-320)
T1 sequence (looked up): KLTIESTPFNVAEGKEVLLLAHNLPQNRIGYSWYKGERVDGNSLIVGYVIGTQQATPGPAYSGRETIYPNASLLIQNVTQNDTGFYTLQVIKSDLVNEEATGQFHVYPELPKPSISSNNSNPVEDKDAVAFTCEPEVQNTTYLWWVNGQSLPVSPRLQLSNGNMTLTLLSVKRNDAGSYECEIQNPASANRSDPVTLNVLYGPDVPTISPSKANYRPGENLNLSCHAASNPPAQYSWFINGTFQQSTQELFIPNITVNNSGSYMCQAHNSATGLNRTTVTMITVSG
Experiment: cell-based or functional assay

B1: TPP-3310 (antibody, human IgG2, kappa, V domains shown)
VH: QVTLRESGPALVKPTQTLTLTCTFSGFSLSTYGIGVGWIRQPPGKALEWLAHIWWNDNKYYSTSLKTRLTISKDTSKNQVVLTMTNMDPVDTATYYCARISLPYFDYWGQGTTLTVSS
VL: DIQLTQSPSFLSASVGDRVTITCKASQNVGTAVAWYQQKPGKAPKLLIYSASNRYTGVPSRFSGSGSGTEFTLTISSLQPEDFATYYCQQYSSYPLTFGGGTKVEIKR
half-maximal effective concentration (EC50) on the activation of T cells in co-culture: ~1 µg/mL
